From US20240190920A1, “BECLIN 1-TARGETED STAPLED PEPTIDE AND PHARMACEUTICAL COMPOSITION” (Shenzhen Research Institute of the Hong Kong Polytechnic …, priority 2021, published 2024)
Bridge positions count the residues as written; N and C are the ends. Square brackets hold non-standard residues; d marks the D form. R8 = C=CCCCCCC[C@@](C)(N)C(=O)O; S5 = C=CCCC[C@](C)(N)C(=O)O

B1: i7-01s-54 (Ac-[Tat]-ALIQ(R8)[…](S5)RKR-NH2) (peptide)
peptide: Ac-YGRKKRRQRRRALIQ[R8]QEDVEK[S5]RKR-NH2
modifications: staple 16-23
SMILES: CC[C@H](C)[C@H](NC(=O)[C@H](CC(C)C)NC(=O)[C@H](C)NC(=O)[C@H](CCCNC(=N)N)NC(=O)[C@H](CCCNC(=N)N)NC(=O)[C@H](CCCNC(=N)N)NC(=O)[C@H](CCC(N)=O)NC(=O)[C@H](CCCNC(=N)N)NC(=O)[C@H](CCCNC(=N)N)NC(=O)[C@H](CCCCN)NC(=O)[C@H](CCCCN)NC(=O)[C@H](CCCNC(=N)N)NC(=O)CNC(=O)[C@H](Cc1ccc(O)cc1)NC(C)=O)C(=O)N[C@@H](CCC(N)=O)C(=O)N[C@]1(C)CCCCCCC=CCCC[C@@](C)(C(=O)N[C@@H](CCCNC(=N)N)C(=O)N[C@@H](CCCCN)C(=O)N[C@@H](CCCNC(=N)N)C(N)=O)NC(=O)[C@H](CCCCN)NC(=O)[C@H](CCC(=O)O)NC(=O)[C@H](C(C)C)NC(=O)[C@H](CC(=O)O)NC(=O)[C@H](CCC(=O)O)NC(=O)[C@H](CCC(N)=O)NC1=O
B2: i7-01s-31 (Ac-[Tat]-VLFN(R8)[…](S5)RKV-NH2) (peptide)
peptide: Ac-YGRKKRRQRRRVLFN[R8]LVDVIK[S5]RKV-NH2
modifications: staple 16-23
SMILES: CC[C@H](C)[C@@H]1NC(=O)[C@H](C(C)C)NC(=O)[C@H](CC(=O)O)NC(=O)[C@H](C(C)C)NC(=O)[C@H](CC(C)C)NC(=O)[C@](C)(NC(=O)[C@H](CC(N)=O)NC(=O)[C@H](Cc2ccccc2)NC(=O)[C@H](CC(C)C)NC(=O)[C@@H](NC(=O)[C@H](CCCNC(=N)N)NC(=O)[C@H](CCCNC(=N)N)NC(=O)[C@H](CCCNC(=N)N)NC(=O)[C@H](CCC(N)=O)NC(=O)[C@H](CCCNC(=N)N)NC(=O)[C@H](CCCNC(=N)N)NC(=O)[C@H](CCCCN)NC(=O)[C@H](CCCCN)NC(=O)[C@H](CCCNC(=N)N)NC(=O)CNC(=O)[C@H](Cc2ccc(O)cc2)NC(C)=O)C(C)C)CCCCCCC=CCCC[C@@](C)(C(=O)N[C@@H](CCCNC(=N)N)C(=O)N[C@@H](CCCCN)C(=O)N[C@H](C(N)=O)C(C)C)NC(=O)[C@H](CCCCN)NC1=O

Legend:
[1] = target: T1, Beclin 1 coiled coil domain (human Beclin 1, residues 176-268) (human), Q14457; assay: ITC, peptide titrated into Beclin 1 coiled coil domain, 25 C, one-site model
T1 sequence (Q14457 176-268 limits assumed): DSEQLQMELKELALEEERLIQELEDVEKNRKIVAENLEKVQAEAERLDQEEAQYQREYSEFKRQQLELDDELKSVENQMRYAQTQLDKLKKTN

[2] = target: T1, Beclin 1 coiled coil domain (human …); assay: ITC, compared with Tat-SP4

Binder	Kd [1] [µM]	fold stronger binding affinity than Tat-SP4 [2] [fold]
B1	311	
B2	0.33	10
